From US20110269148A1 (published 2011)

Molecular target: protein A on the surface of Staphylococcus aureus cells (ATCC 12598) (Staphylococcus aureus, UniProt P38507 37-477)
Assay: cell-based or functional assay

B1: sdAb-NAEB: single domain antibody HVHP428 (human VH) conjugated to rhodamine 6G gold nanoaggregate embedded beads with silica shell (other)
VH: QLQLQESGGGLVQPGGSLRLSCAASGFTFSSYAMSWFRQAPGKGLEWVGFIRSKAYGGTTEYAASVKGRFTISRDDSKSIAYLQMNSLRAEDTAMYYCARRAKDGYNSPEDYWGQGTLVTVSS
modifications: covalently coupled by EDC/NHS chemistry to the amine- or carboxylate-modified silica shell of the bead; coupled residues not stated
With B1 the “agglutination relative to the sdAb pentamer (Ryan et al., 2009; MAC value 3×10^13 pentamer mL^-1)” value was greater than 100 fold.
